The text below walks through data of paper PMC6201588, “Molecular cloning and characterization of vanillin dehydrogenase from Streptomyces sp. NL15-2K” (BMC Microbiology, 2018).

The Km is the substrate concentration at which the rate is half of its maximum. By kcat/Km is commonly meant the turnover number divided by the Michaelis constant. The stoichiometry N is the number of molecules, sites or subunits per partner or assembly.

In data set [1] the test system is COc1cc(C=O)ccc1O. The experiment in a line: purified protein. The following applies: co-substrate NAD+ (0.5 mM in standard assay), 30 °C, pH 9.5.
Data set [2] relates to NC(=O)c1ccc[n+]([C@@H]2O[C@H](COP(=O)(O)OP(=O)(O)OC[C@H]3O[C@@H](n4cnc5c(N)ncnc54)[C@H](O)[C@@H]3O)[C@@H](O)[C@H]2O)c1. Briefly: purified protein. The following applies: co-substrate vanillin, pH 9.5, varied: cofactor.
Data set [3] concerns the target vanillin dehydrogenase from Streptomyces sp. NL15-2K (recombinant) (Streptomyces sp. NL15-2K). The experiment in a line: SEC; gel filtration of purified recombinant VDH on Superdex 200 10/300 GL, calibrated with thyroglobulin, ferritin, aldolase, conalbumin and ovalbumin; native mass compared with the subunit mass by SDS-PAGE.

“VDH (vanillin dehydrogenase) from Streptomyces sp. NL15-2K (Streptomyces sp. NL15-2K; S2A)”: in data set [1], the Michaelis constant (Km) came out at 8.47 ± 0.91 µM, the kcat is 9.35 ± 0.77 s⁻¹ and the specificity constant (kcat/Km) stood at 1.11e+06 ± 100000 M⁻¹ s⁻¹. In data set [2], the Km was found to be 647 ± 40.0 µM and the kcat worked out at 23.45 ± 0.59 s^− 1.
On to “vanillin dehydrogenase from Streptomyces sp. NL15-2K (recombinant) (enzyme)”, for which the stoichiometry N in data set [3] amounted to 4.
